Test results as given in paper PMC3098157.

Assays:
FLAG-tagged LEDGF/p75 WT = FLAG-tagged LEDGF/p75 WT (UniProt O75475)
[1] = biological target: FLAG-tagged LEDGF/p75 ΔPWWP
[2] = biological target: LEDGF/p75 WT (Lens epithelium-derived growth factor/p75) (UniProt O75475)
[3] = biological target: LEDGF/p75 ΔPWWP (stably expressed in HEK293T-derived cells)

Substance | salt extraction assay, transient coexpression: NaCl needed to extract LEDGF/p75 WT from chromatin with integrase WT (250 mM without integrase) (FLAG-tagged LEDGF/p75 WT) | salt extraction assay, transient coexpression: NaCl needed for complete extraction of LEDGF/p75 ΔPWWP from chromatin with integrase WT (150 mM without integrase) [1] | salt extraction assay: percent of LEDGF/p75 WT extracted from chromatin at NaCl above 200 mM in cells co-expressing HIV-1 integrase (around 70% without integrase) [2] | salt extraction assay: percent of LEDGF/p75 ΔPWWP extracted from chromatin at 100 mM and 150 mM NaCl in cells co-expressing HIV-1 integrase (30% and 70% without integrase) [3]
Myc-eGFP-tagged HIV-1 integrase WT (enzyme) | > 300 mM | > 200 mM | – | –
Myc-tagged HIV-1 integrase (enzyme) | – | – | < 1% | < 2%
